Data on one protein can be found in PMC6080891 (The Journal of General Physiology, 2018).

This data set concerns the molecule itself. Kind of data set: native gel or EMSA. In general terms: In EMSA bound probe runs differently from free probe, usually more slowly.

B1: UNC-103::GFP (natural protein, C. elegans, UniProt G5EFJ9 1-829, looked up)
chain: MKTAVFGRDSGEPGSPCGAPPSLTFTPPATLVPPTHHHSRSTNRGGVSGTGGGGSGGLQGAPGAGGPRASHSSRRTSRLHNNVSALGVLSLGADVLPEYKLQPTRIHHCTIVHYSPFKAVWDWIILLLVIYTAVFTPYVAAFLLRELQDTAKKSRFTEPLEIVDLIVDIMFIVDIIINFRTTYVNENDEACQVVSDPGKIATHYFKGWFIIDMVAAVPFDLLLVSTNSDETTTLIGLLKTARLLRLVRVARKLDRYSEYGAAVLLLLMATFALIAHWLACIWYAIGSAELSHKEYTWLHQLSKQLAQPYTSTNGTIPTGGPTLKSRYVTSLYFTLSTITSIGFGNVSATTDSEKIFTIIMMILGSLMYASVFGNVSAIIQRLYSGTARYHTEMSRLREFIRFHQIPNPLRQRLEEYFQHAWSYTNGIDMNLVLKGFPDCLQADICLHLNRNLLSGCAAFAGSTPGCLRALSMRFRTTHSPPGDTLVHRGDILTGLYFIARGSVEILNDDNTVMGILGKDDIFGENPLLYDEVGKSSCNVRALTYCDLHKILRDDLLDVLDMYPEFAETFCKNLTITYNLRDDAQSLRKKFDRHKLLRMSSSMNKDRYTTPPDGDHGNAAVRRSAESVSRCDSNPIDRRQSAGSRSSSRCSPPHAALTATRSEATPLLRRSTNHHEEDDALFDDIRAFARGNTVTMSPTVAGNSVSPTTAIHNDGIHSQQLSDRSDDYEERRANMFGRRLESIESQMERMQNKFNSDMETLIKLVKEQSIIRNNGSSNEEPNARYRPNNYISSAIRLPNGGGGGVVDEMRVSRLSSHEPPTPTQETDTIL
The stoichiometry N is the number of molecules, sites or subunits per partner or assembly. For the protein B1, the “stoichiometry N” value came out at 4.
